Measured values from the supplement of paper PMC7125110.
± gives the standard error. Variants at the floor of the assay were thinned out.

B1: glmS ribozyme (parent)
chain: AUAAAAGCGCCAGAACUACAGAAAUGUAGUUGACGAGGAGGAGGUUUAUCGAAUUUUCGGCGGAUGCCUCCAAA

Variants of: B1
Assay: self-cleavage kobs at 10000 uM GlcN6P; higher = faster cleavage; RNA array
Settings: with glucosamine-6-phosphate
Method in brief: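 Glucosamine-6-phosphate, from 40 μM to 10 mM in HEPES/KCl/Mg(OAc)2 buffer, was flowed over sequenced MiSeq chips carrying barcoded ribozyme variants transcribed in situ by E. coli RNA polymerase. A hybridised Cy3 probe tracked the variants at 37 °C as tiles were imaged over ~14 h. kobs, kcat and KM were obtained by fitting normalised per-tile medians to exponential decays and then applying weighted Michaelis–Menten fits across concentrations.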

Variant	self-cleavage kobs at 10000 uM GlcN6P [s⁻¹]
C50G C67U C68G C71G	0.000108 ± 2.8e-05
U31G G44C	4.96e-05 ± 1.3e-05
U31A G51U C68A	< 1e-05
U45G C58A G66U	8.19e-05 ± 1.6e-05
G38U G40U G41C U47C G59C C68G	< 1e-05
C10U G13A G40U	< 1e-05
U2C C11U G59U	0.000103 ± 2.1e-05
C10G A14U C16A U54G C61U G62U	< 1e-05
G13C U49G G59U	< 1e-05
G40A G44U U47G G60U C61U C68U	< 1e-05
G7A C71U	3.82e-05 ± 1e-05
C16U G44A U54G	0.000358 ± 7.9e-05
G7U C8G C16A	< 1e-05
U31C U47C C70U	0.000673 ± 0.00014
U31G U56C C58U	6.36e-05 ± 1.2e-05
C11A A42U G51U G60C	< 1e-05
A6C C8A A36C	< 1e-05
C34U G38U G40U	< 1e-05
G7C G35U G38U	< 1e-05
G51C U55C	< 1e-05
A14C A39U C67G	0.000928 ± 0.00017
A6G C58U A64U	< 1e-05

Variant	self-cleavage kobs at 10000 uM GlcN6P [s⁻¹]
G37C A64C C67G	< 1e-05
U30G A33G C71G	< 1e-05
A42C C50U C68A C70A	< 1e-05
C16A G51U U65A	< 1e-05
C8A A42G G66U	< 1e-05
A14U G43U G51A	< 1e-05
G32C C68G C71G	0.000123 ± 2.3e-05
U30A C61A	< 1e-05
G38U A53U U69G	0.000134 ± 3.5e-05
U54G C67U C68U	0.000147 ± 2.9e-05
C16A G35C U65G	< 1e-05
A12C G13U U47A U56A	4.59e-05 ± 1.6e-05
A6U C50G A53C C71A	4.1e-05 ± 2e-05
A12C C16G U49A C68A	< 1e-05
A14G C58U C71U	0.00012 ± 2.1e-05
C10U A33U G37C A53U U57A A64G	< 1e-05
C11G A12G G32C U57C	< 1e-05
U55G C61A	< 1e-05
G35C A42G U45G	< 1e-05
A6G C34A A42U U54G	< 1e-05
G29C G41C A42U	< 1e-05
A42U A52G U57A G63C	< 1e-05

Variant	self-cleavage kobs at 10000 uM GlcN6P [s⁻¹]
A14C G38C G60U	< 1e-05
G35C G38U G43A G51C G60C	< 1e-05
G13U A39G C68U	0.000334 ± 8.3e-05
A14C A52G C61A	< 1e-05
A33U A53C G62U	< 1e-05
A6C A15U C34A A39G U65A	< 1e-05
C11A G66A	6.59e-05 ± 1.3e-05
C11A A33G C50U C58U G59U G63A	< 1e-05
A15U G59U C71G	< 1e-05
A39U A48G G60A	< 1e-05
C8G A14C C68G	< 1e-05
G7U C61U C70A	< 1e-05
A15G G32C G59C	< 1e-05
A33U G41U U49A A52U U69A	< 1e-05
A15U A39G G62A	< 1e-05
G35U G41U C67G	< 1e-05
U2G U47C	0.00421 ± 0.0012
G7C C10U G60U	< 1e-05
G13C A14G G41U	6.44e-05 ± 1.7e-05
G43A C50A A64U	< 1e-05
C8U A14U A36U	< 1e-05
U31A A36U U47G C70G	5.95e-05 ± 1.5e-05

Variant	self-cleavage kobs at 10000 uM GlcN6P [s⁻¹]
A14C U47G U54C	0.00121 ± 0.00018
G29A C58U	4.95e-05 ± 8.6e-06
G32U G43U A53G G63U A64G G66U	< 1e-05
A15G U49A G62U	< 1e-05
G51A A52U G59A	< 1e-05
G13U G40A G66C C71A	2.79e-05 ± 1.3e-05
C50G U54G U65G	< 1e-05
C16U U45C U55G	0.00144 ± 0.0003
G32A U55G U65G G66U C70G	3.69e-05 ± 1.7e-05
A14U A48C U56G C68A	< 1e-05
C11U U31G U54A	0.0029 ± 0.0008
C8G G32U G66U	< 1e-05
U30C G40A A53C C58U	< 1e-05
U30A U31C A53G	0.00407 ± 0.0007
C11U U45A	0.002 ± 0.00051
C16A G44A C67A	9.58e-05 ± 2.5e-05
A36G U46A C58A	< 1e-05
A53G G63C	< 1e-05
C11U G32U G35U A64U	< 1e-05
